What was measured:
Experiment in all cases: cross-linking; disulfide crosslinking: reduced proteins alone or mixed at 30 uM per monomer each, 1 h at 42°C, then dialysis against 50 mM Tris/HCl pH 7.4, 50 mM KCl, 1 mM MgCl2, 0.1 mM PMSF at 4, 15 or 37°C; non-reducing SDS PAGE
Conditions in all cases: both partners purified
[1] = molecular target: T1, wild type HspB1 (human small heat shock protein HspB1) (human, UniProt P04792 1-205)
T1 construct: human small heat shock protein HspB1, wild type, cDNA in pET23b; also called WT HspB1; WT; source: E. coli BL21 (DE3) pLysS, purified (ammonium sulfate fractionation, HiTrap Q, Superdex 200)

[2] = molecular target: T2, G34R mutant of HspB1 (human, UniProt P04792 1-205, G34R)
T2 construct: human HspB1 with the disease-associated replacement G34R, in pET23b (NdeI/XhoI); Mutation occurs in patients with distal hereditary motor neuropathy; source: E. coli BL21 (DE3) pLysS, purified (ammonium sulfate fractionation, HiTrap Q, Superdex 200)

[3] = molecular target: T3, P39L mutant of HspB1 (human, UniProt P04792 1-205, P39L)
T3 construct: human HspB1 with the disease-associated replacement P39L, in pET23b (NdeI/XhoI); Mutation occurs in patients with type II Charcot-Marie-Tooth disease or dHMN; source: E. coli BL21 (DE3) pLysS, purified (ammonium sulfate fractionation, HiTrap Q, Superdex 200)

[4] = molecular target: T4, E41K mutant of HspB1 (human, UniProt P04792 1-205, E41K)
T4 construct: human HspB1 with the disease-associated replacement E41K, in pET23b (NdeI/XhoI); Mutation occurs in patients with distal hereditary motor neuropathy; source: E. coli BL21 (DE3) pLysS, purified (ammonium sulfate fractionation, HiTrap Q, Superdex 200)
T4 sequence (P04792 whole entry E41K): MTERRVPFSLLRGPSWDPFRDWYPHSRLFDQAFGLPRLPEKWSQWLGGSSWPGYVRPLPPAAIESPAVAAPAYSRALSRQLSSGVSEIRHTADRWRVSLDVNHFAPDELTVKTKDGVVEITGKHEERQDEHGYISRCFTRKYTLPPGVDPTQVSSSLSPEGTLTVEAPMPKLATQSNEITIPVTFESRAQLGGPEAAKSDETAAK

T1 sequence (P04792 whole entry): as the sequence (P04792 whole entry E41K) above, with K41E counted along it
T2 sequence (P04792 whole entry G34R): as the sequence (P04792 whole entry E41K) above, with G34R, K41E counted along it
T3 sequence (P04792 whole entry P39L): as the sequence (P04792 whole entry E41K) above, with P39L, K41E counted along it

binding result [1]: binds
binding result [2]: binds
binding result [3]: binds
binding result [4]: binds
B1: double mutant of HspB6 containing the substitutions C46S/E116C (natural protein, human, UniProt O14558 1-160, looked up)
chain: MEIPVPVQPSWLRRASAPLPGLSAPGRLFDQRFGEGLLEAELAALSPTTLAPYYLRAPSVALPVAQVPTDPGHFSVLLDVKHFSPEEIAVKVVGEHVEVHARHEERPDEHGFVARCFHRRYRLPPGVDPAAVTSALSPEGVLSIQAAPASAQAPPPAAAK
notes: HspB6 lacking the natural Cys of the N-terminal domain and with a single Cys at the position homologous to Cys137 of HspB1; also called Cys mutant of HspB6; Cys-mutant of HspB6; source: expressed and purified as described earlier [36]
